Test results as given in patent publication US20120100142A1 (VANDERBILT UNIVERSITY, published 2012).

How the values were obtained:
[1] = molecular target: T1, 1918 HA displayed on 1918 virus-like particles, reconstituted 1918 virus or transfected cells (influenza A/South Carolina/1/1918 …, UniProt Q9WFX3 18-566); assay: cell-based or functional assay
[2] = molecular target: Recombinant A/South Carolina/1/1918 virus HA (influenza A/South Carolina/1/1918 …, UniProt Q9WFX3 18-520)
[3] = molecular target: T1, 1918 HA displayed on 1918 virus-like …; assay: cell-based or functional assay; remark: listed apart in the source
[4] = molecular target: T1, 1918 HA displayed on 1918 virus-like …

T1 sequence (Q9WFX3 18-566): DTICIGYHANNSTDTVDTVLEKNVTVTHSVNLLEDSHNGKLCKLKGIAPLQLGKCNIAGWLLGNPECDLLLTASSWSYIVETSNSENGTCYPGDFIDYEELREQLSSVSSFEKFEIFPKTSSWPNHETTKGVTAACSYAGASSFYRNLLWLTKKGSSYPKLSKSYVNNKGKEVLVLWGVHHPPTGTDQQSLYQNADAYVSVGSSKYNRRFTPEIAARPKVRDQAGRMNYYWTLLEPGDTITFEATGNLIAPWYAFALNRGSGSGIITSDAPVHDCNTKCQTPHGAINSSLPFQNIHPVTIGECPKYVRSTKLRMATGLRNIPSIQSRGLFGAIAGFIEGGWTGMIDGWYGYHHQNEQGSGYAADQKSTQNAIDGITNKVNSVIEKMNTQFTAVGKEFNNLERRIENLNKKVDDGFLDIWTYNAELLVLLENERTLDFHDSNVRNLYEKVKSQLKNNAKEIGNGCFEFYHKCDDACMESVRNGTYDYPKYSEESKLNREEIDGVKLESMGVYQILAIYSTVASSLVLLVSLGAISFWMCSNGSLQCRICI
Chain of Recombinant A/South Carolina/1/1918 virus HA (Q9WFX3 18-520 limits assumed): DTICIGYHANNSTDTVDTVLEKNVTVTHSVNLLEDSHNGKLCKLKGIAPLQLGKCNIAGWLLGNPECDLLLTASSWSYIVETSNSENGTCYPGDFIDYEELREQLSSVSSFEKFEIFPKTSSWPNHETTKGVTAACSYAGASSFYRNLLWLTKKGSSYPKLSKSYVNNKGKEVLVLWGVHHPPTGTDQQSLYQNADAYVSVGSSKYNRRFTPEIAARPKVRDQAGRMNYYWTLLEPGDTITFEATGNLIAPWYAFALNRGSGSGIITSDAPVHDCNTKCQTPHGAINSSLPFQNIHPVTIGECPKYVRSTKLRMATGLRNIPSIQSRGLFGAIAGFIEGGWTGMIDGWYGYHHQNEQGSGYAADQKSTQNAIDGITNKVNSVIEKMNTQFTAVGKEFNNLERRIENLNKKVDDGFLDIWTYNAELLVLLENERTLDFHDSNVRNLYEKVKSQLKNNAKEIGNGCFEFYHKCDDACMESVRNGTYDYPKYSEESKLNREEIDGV

B1: mAb 2B12 (antibody, V domains shown)
VH: EVQLQESGPGLVKPSQTLSLTCNVSGGSITGDYKWSWIRQPPGKGLEWIGHIHSTGTTYYNPSLRSRITISMDTSKNNLSLRLTSVTAADTAVYYCASHTLTSGHYPRDFDFWGQGTLVTVSS
VL: SYVLTQPPSVSGTPGQRVIISCSGYSSNIGSNTVNWYQQFPGTAPRLLIYANNQRPPGVPDRFSGSKSGTSASLAISGLQSDDESDYYCAAWDDSLNGHWVFGGGTKLTVLG
B1 was tested, and the “HAI, specific activity of indicated mAb” value [1] was 0.32 µg/mL, the Kd [2] was 6.2 nM and the koff [2] was 0.00012 s⁻¹. The kon [2] was 18000 M⁻¹ s⁻¹, the “Specific HAI activity” value [3] was 0.31 µg/mL and the “EC50 (read off the curve)” value [4] was roughly 0.02 µg/mL.

B2: mAb 2D1 (antibody, V domains shown)
VH: EVQLVESGPALVKPTQTLTLTCSFSGFSLSTSGMSVSWIRQPPGKALEWLALIDWDDDTYYITYSSSLKTRLTISKDTSKSQVVLTMTNMDPVDTATYYCARTLRVSGDYVRDFDLWGRGTLVTVS
VL: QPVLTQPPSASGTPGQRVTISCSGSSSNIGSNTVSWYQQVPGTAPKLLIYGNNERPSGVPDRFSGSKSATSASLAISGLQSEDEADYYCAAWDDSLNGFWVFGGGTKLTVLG
In the case of B2, the “HAI, specific activity of indicated mAb” value [1] is reported as 0.025 µg/mL, the Kd [2] is reported as 0.25 nM and the koff [2] is reported as 1e-05 s⁻¹. The kon [2] was 39000 M⁻¹ s⁻¹ and the “Specific HAI activity” value [3] was 0.01 µg/mL.

B3: mAb 4D20 (antibody, V domains shown)
VH: EVQLVESGPVLVKPTETLTVTCTVSGFSVDNDRMGVSWIRQPPGKALEWLAHIFSNDEKSYSTSLRSRLTISKDTSKRQVVLSMTDMDPVDTATYYCARAPSEYAAMDVWGQGTMVTVS
VL: SYVLTQPPSVSVAPGETATVTCGGNNIGSKSVHWYQQKPGQAPVVVIYYDGDRPSGIPERFSGSNSGDTATLTISRVEAGDEADYYCLVWDYTSVHYVFGTGTKVTVLG
With B3 the “HAI, specific activity of indicated mAb” value [1] was 0.04 µg/mL, the Kd [2] was 0.14 nM and the koff [2] was 1e-05 s⁻¹. For the same binder, the kon [2] was 170000 M⁻¹ s⁻¹ and the “Specific HAI activity” value [3] was 0.04 µg/mL.

B4: mAb 1I20 (antibody, V domains shown)
VH: EVQLVESGGGVVQPGGSLRLSCIASAFNLGIFGMHWVRQAPGKGLEWVAFIRYDGGKTFYADSVKGRFTISRDNSKNTLYLQMNSLRTEDTALYYCARDATADYYGPGSYPNWLDPWGQGTLVTVS
VL: DIRLTQSPATLSVSPGERATLSCRASHSVSRNLAWYQQKPGRAPRLLVYDTSSRATGIPARFSGSGSGTEFTLTISSLQSEDFAVYYCQQYNNWPRTFGQGTKVDIK
B4 was tested, and the “HAI, specific activity of indicated mAb” value [1] was 0.28 µg/mL, the Kd [2] was 0.048 nM and the koff [2] was 1.4e-05 s⁻¹. The kon [2] was 290000 M⁻¹ s⁻¹ and the “Specific HAI activity” value [3] was 0.16 µg/mL.

B5: mAb 1F1 (antibody, V domains shown)
VH: EVQLVQSGGGVVQPRRSLRLSCAASGFTFSSYAMHWVRQAPGKGLEWVAVISYDGRNKYYADSVKGRFTVSRDNSKNTLYLQMNSLRAEDTSVYYCARELLMDYYDHIGYSPGPTWGQGTLVTVSS
VL: QPVLTQPPSASGSPGQRVTISCSGSSSNIGSYTVNWYQQLPGTAPKLLIYSLNQRPSGVPDRFSGSKSGTSASLAISGLQSEDEAVYYCAAWDDSLSAHVVFGGGTKLTVLG
B5 was tested, and the “HAI, specific activity of indicated mAb” value [1] was 0.04 µg/mL, the Kd [2] was 5.4 nM and the koff [2] was 0.00017 s⁻¹. The kon [2] was 31000 M⁻¹ s⁻¹ and the “Specific HAI activity” value [3] was 0.08 µg/mL.
